In article PMC11157650 one finds stoichiometry N data, which are given here for two molecules.

The term stoichiometry N denotes the number of molecules, sites or subunits per partner or assembly.

The target of assay [1] is Fc part of the IgM protomer left after IgMBRAZOR cleavage (two mu chain fragments from Ala344 to the C-terminus) (human). The experiment in a line: SEC + native MS; online SEC-Orbitrap-based CDMS of IgM co-expressed with the J-chain, undigested or digested with IgMBRAZOR; sample in PBS, 0.5 μg injected; mobile phase 100 mM ammonium acetate pH 6.8; the oligomer is held by disulfide bonds.

The target of assay [2] is Recombinant anti-StrepTag IgM protomer (two mu heavy chains and two kappa light chains). Described as above.

Turning to “Fc part of the IgM protomer left after IgMBRAZOR cleavage (two mu chain fragments from Ala344 to the C-terminus) (domain or fragment)”, in assay [1], the stoichiometry N was found to be 5.

B1: Recombinant anti-StrepTag IgM protomer (two mu heavy chains and two kappa light chains) (antibody, V domains shown)
VH: EVQLEQSGPELVKPGASVKMSCKASGYTFTNYYMKWVKQSHGKSLEWIGDLNPNNGDTFYNQKFKGKATLTVDKSSNTAYMQLNSLTSEDSAVYYCARTGRYEENAMDYWGQGTSVTVSS
VL: ELVMTQSPASLAVSLGQRATISCRASESVDSYGKSFMHWYQLKPGQPPKLLIYRASNLESGVPARFSGSGSRTDFTLTIDPVEADDAATYYCQQNNEDPWTFGGGTKLEIK
As to B1, the stoichiometry N in assay [2] turned out to be 5.
